Experimental data as given in paper PMC8985225.

Key:
[1] = target: Ca^2+/CaM-dependent kinase II α (CaMKIIα) holoenzyme (rodent) (UniProt P11275)
[2] = target: Ca^2+/CaM-dependent kinase II β (CaMKIIβ) holoenzyme (rodent) (UniProt P08413)
Sequence of UniProt P08413 (P08413 whole entry): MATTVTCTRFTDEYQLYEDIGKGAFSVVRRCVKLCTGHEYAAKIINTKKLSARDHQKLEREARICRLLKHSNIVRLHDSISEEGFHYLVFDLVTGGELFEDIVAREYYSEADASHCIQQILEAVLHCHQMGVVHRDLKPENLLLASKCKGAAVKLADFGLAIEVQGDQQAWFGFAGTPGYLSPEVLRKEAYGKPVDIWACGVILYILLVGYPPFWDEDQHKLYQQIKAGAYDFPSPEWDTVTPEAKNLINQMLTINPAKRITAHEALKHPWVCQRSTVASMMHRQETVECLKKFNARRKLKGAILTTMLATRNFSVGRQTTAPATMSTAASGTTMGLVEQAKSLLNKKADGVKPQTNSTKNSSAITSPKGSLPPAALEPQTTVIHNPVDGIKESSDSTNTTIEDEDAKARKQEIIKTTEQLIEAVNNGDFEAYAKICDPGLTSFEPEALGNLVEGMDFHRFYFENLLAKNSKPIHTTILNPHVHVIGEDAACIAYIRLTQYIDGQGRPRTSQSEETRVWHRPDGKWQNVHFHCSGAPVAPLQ

Sequence of UniProt P11275 (P11275 whole entry): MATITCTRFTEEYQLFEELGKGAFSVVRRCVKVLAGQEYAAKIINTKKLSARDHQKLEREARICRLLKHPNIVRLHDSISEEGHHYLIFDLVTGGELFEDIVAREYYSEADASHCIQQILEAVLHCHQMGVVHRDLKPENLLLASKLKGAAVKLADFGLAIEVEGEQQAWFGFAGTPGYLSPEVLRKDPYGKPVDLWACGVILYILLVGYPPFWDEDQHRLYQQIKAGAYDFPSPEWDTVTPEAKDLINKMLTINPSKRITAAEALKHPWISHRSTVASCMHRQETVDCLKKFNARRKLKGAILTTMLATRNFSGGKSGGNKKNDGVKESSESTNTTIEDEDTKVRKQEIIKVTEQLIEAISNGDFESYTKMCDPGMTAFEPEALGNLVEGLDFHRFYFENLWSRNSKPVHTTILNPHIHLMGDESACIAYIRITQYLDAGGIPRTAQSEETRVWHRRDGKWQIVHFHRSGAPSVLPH

Calmodulin (from UniProt P0DP23 1-149) (natural protein)
EC50 of CaM for in vitro CaMKII kinase activity (phosphorylation of syntide-2; 0.6 nM to 6 μM CaM) [1]: 0.0301 µM
EC50 of CaM for in vitro CaMKII kinase activity (phosphorylation of syntide-2; 0.6 nM to 6 μM CaM) [2]: 0.0146 µM
